Data on eleven molecules can be found in paper PMC7956722 (Molecules, 2021).

Like-named read-outs stand apart in the source and are kept apart here. Non-standard residues stand in square brackets, D forms with d. Residues, ends and D or L forms follow the SMILES beside them. dPhe(4-Cl) = N[C@H](Cc1ccc(Cl)cc1)C(=O)O; d2Nal = N[C@H](Cc1ccc2ccccc2c1)C(=O)O; dCit = NC(=O)NCCC[C@@H](N)C(=O)O; d3Pal = N[C@H](Cc1cccnc1)C(=O)O

Data set [1] deals with T1, LHRH receptors (membrane receptors of human bladder cancer cells) (Homo sapiens, UniProt P30968).
T1 construct: membrane homogenates of bladder cancer specimens containing 60–150 µg protein were incubated in duplicate; from tissue; host or cells: surgically resected human bladder cancer (transitional cell carcinoma) tissue, crude membrane fractions
T1 sequence (P30968 1-328): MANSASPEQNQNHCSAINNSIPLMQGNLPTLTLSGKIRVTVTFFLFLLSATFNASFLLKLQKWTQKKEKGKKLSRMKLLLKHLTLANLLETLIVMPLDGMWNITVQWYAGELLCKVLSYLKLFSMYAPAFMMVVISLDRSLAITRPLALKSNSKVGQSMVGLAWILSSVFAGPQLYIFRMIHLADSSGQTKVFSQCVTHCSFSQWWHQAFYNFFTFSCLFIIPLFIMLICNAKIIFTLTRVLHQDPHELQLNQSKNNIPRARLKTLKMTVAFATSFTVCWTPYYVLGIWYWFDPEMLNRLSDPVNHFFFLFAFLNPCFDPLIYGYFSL
Nature of the data set: Ligand competition assay: displacement of [125I][D-Trp6]LHRH by unlabeled peptides. It is filed as binding. The settings on record: for displacement of [125I][D-Trp6]LHRH by unrelated peptides: membrane fractions of human bladder cancer specimens, increasing concentrations, mean of duplicate or triplicate determinations. The procedure:
Analysis of the typical displacement of radiolabeled [D-Trp^6] […] Biochemical parameters essential to establish the identity of specific binding sites were also determined.
Each point represents mean of duplicate or triplicate determinations.
The assay was performed as described earlier. […] At the end of the incubation, 125 µL aliquots of suspension were transferred onto the top of 1 mL of ice-cold binding buffer containing 1.5% BSA in microcentrifuge tubes. The tubes were centrifuged at 12,000× g for 3 min at 4 °C. Supernatants were aspirated and the pellet was counted in a gamma counter. Protein concentration was determined by the method of Bradford using a Bio-Rad protein assay kit (Bio-Rad Laboratories, Hercules, CA, USA). The final binding affinities were expressed as IC50 values and were calculated by using the LIGAND-PC computerized curve-fitting program of Munson and Rodbard.

A further data set concerns various human cancers. Particulars: trials completed or terminated; cited from earlier work. The source says: (§1) Our findings are in agreement with the results of Bahk et al. (2008). […] However, there is no information about the role of peptide receptors in bladder carcinogenesis. The signaling pathways have the potential to be an important area of bladder cancer research, leading to the development of effective therapeutic approaches.

The test system of data set [2] is bladder cancer in nude mice. Particulars: Szepeshazi et al., cited from earlier work.
Excerpt: as §1

In data set [3] the test system is LHRH-receptor-positive models of human ovarian, mammary, endometrial, and prostatic cancers. The settings on record: cited from earlier work.
The test system of data set [4] is metastatic bladder cancer. Particulars: first-line therapy, cisplatin-based chemotherapy; cited from earlier work. The source says: More than 90% of urothelial tumors originate from the urinary bladder, 8% from the renal pelvis, and 2% from the ureter and urethra. Histologically, the majority (around 90%) of bladder cancer is described as the type of TCC and the rest are squamous cell carcinoma, adenocarcinoma, and rarely, small cell carcinoma. Despite advancements in surgical techniques and chemotherapy, the overall survival in metastatic bladder cancer has not improved over the last 20 years. The first-line therapy is cisplatin-based chemotherapy with the response rate of approximately 50% [[4],[31] ...

The next data set concerns bladder carcinogenesis. Also on record: method as in PMID 8551710. The settings on record: cited from earlier work.
The target in data set [5] is T2, [125I][D-Trp6]LHRH (Homo sapiens, pGlu1, D-Trp6, C-terminal amide, 125I).
T2 chain: QHWSYWLRPG
Nature of the data set: radioligand competition (patient 12).

For data set [6], the target named is T2, [125I][D-Trp6]LHRH. Nature of the data set: radioligand competition (patient 3).
In data set [7] the target is T2, [125I][D-Trp6]LHRH. Nature of the data set: radioligand competition (patient 10).
Data set [8] addresses T2, [125I][D-Trp6]LHRH. The data set can be described thus: radioligand competition, Scatchard (mean of 10 bladder cancer specimens).
Data set [9] deals with T2, [125I][D-Trp6]LHRH. The data set can be described thus: radioligand competition (patient 18).
In data set [10] the target is T2, [125I][D-Trp6]LHRH. The data set can be described thus: radioligand competition (patient 6).
Data set [11] has as its target T2, [125I][D-Trp6]LHRH. The data set can be described thus: radioligand competition (patient 19).
Data set [12] has as its target T2, [125I][D-Trp6]LHRH. The data set can be described thus: radioligand competition (patient 14).
Another data set deals with T3, AN-152 (Homo sapiens, pGlu1, D-Lys6 linked through glutaric acid spacer to doxorubicin, C-terminal amide).
T3 chain: QHWSYKLRPG
The data set can be described thus: radioligand competition.

For the next data set, the target named is T4, [D-Lys6]LHRH (Homo sapiens, pGlu1, D-Lys6, C-terminal amide).
T4 chain: QHWSYKLRPG
Nature of the data set: radioligand competition.

The target in data set [13] is T2, [125I][D-Trp6]LHRH. Nature of the data set: radioligand competition (patient 7).
Data set [14] has as its target T2, [125I][D-Trp6]LHRH. The data set can be described thus: radioligand competition (patient 8).
In data set [15] the target is T2, [125I][D-Trp6]LHRH. Nature of the data set: radioligand competition (patient 22).

Excerpt for bladder carcinogenesis: The effects of the androgen regulation system and LHRH agonist on bladder carcinogenesis have been investigated in animals [10].

Turning to `COc1cccc2c1C(=O)c1c(O)c3c(c(O)c1C2=O)C[C@@](O)(C(=O)COC(=O)CCCC(=O)NCCCC[C@@H](NC(=O)[C@H](Cc1ccc(O)cc1)NC(=O)[C@H](CO)NC(=O)[C@H](Cc1c[nH]c2ccccc12)NC(=O)[C@H](Cc1c[nH]cn1)NC(=O)[C@@H]1CCC(=O)N1)C(=O)N[C@@H](CC(C)C)C(=O)N[C@@H](CCCNC(=N)N)C(=O)N1CCC[C@H]1C(=O)NCC(N)=O)C[C@@H]3O[C@H]1C[C@H](N)[C@H](O)[C@H](C)O1` [AN-152], in [1] (compared with free peptide carrier [D-Lys6]LHRH, human bladder cancer membranes), the “binding affinity relative to free carrier [D-Lys6]LHRH (in words)” value is listed as “only slightly lower binding affinity to specific LHRH receptors than the free peptide carrier”. Further, the “binding to LHRH receptors (in words)” value in data set [1] (displacement of [125I][D-Trp6]LHRH, human bladder cancer membranes) is recorded as “could effectively bind to LHRH receptors at low nanomolar concentration”. For the same molecule, the “outcome of clinical trials” value with various human cancers is reported as “some of these studies did not achieve their primary endpoint”. Moreover, the “effect compared with DOX” value in data set [2] (bladder cancer in nude mice) is on record as “greater effects than DOX”. For the same molecule, in [2] (nude mice), the “growth inhibition of bladder cancer” value is reported as “inhibits powerfully the growth of the bladder cancer in nude mice” and the “toxicity compared with DOX” value is “lesser toxicity”. Moreover, the “inhibition of tumor growth in vivo versus respective radicals” value in data set [3] (human ovarian, mammary, endometrial, prostatic cancers xenografted into nude mice) is recorded as “much more effective in vivo than their respective radicals in inhibiting tumor growth”. Besides, the “toxicity versus respective radicals” value in [3] (nude mice) is on record as “less toxic”.

In the case of `CC(=O)N[C@H](Cc1ccc2ccccc2c1)C(=O)N[C@H](Cc1ccc(Cl)cc1)C(=O)N[C@H](Cc1cccnc1)C(=O)N[C@@H](CO)C(=O)N[C@@H](Cc1ccc(O)cc1)C(=O)N[C@H](CCCNC(N)=O)C(=O)N[C@@H](CC(C)C)C(=O)N[C@@H](CCCNC(=N)N)C(=O)N1CCC[C@H]1C(=O)N[C@H](C)C(N)=O` [Cetrorelix] (Ac-[d2Nal][dPhe(4-Cl)][d3Pal]SY[dCit]LRP[dA]-NH2), in data set [1], the IC50 was found to be 0.86 nM.

`CC(C)C[C@H](NC(=O)[C@@H](CCCCN)NC(=O)[C@H](Cc1ccc(O)cc1)NC(=O)[C@H](CO)NC(=O)[C@H](Cc1c[nH]c2ccccc12)NC(=O)[C@H](Cc1cnc[nH]1)NC(=O)[C@@H]1CCC(=O)N1)C(=O)N[C@@H](CCCNC(=N)N)C(=O)N1CCC[C@H]1C(=O)NCC(N)=O` [[D-Lys^6]LHRH]: the IC50 in data set [1] (read-out: Receptor binding potency (IC50)) turned out to be 0.98 nM.

As for `N.N.[Cl][Pt][Cl]` [cisplatin], in [4], the response rate result was “approximately 50%”.

As for `CC(C)C(=O)Nc1ccc([N+](=O)[O-])c(C(F)(F)F)c1` [flutamide], the “effect on bladder carcinogenesis” value with bladder carcinogenesis is reported as “suppressed the LHRH-induced promotion of carcinogenesis”.

Consider “epidermal growth factor: unrelated peptide”, for which the “displacement of [125I][D-Trp6]LHRH by unrelated peptides” value (“displacement of [125I][D-Trp6]LHRH” below) in data set [1] is “did not displace the radioligand”.

Take “growth hormone-releasing hormone (GHRH): unrelated peptide”: the “displacement of [125I][D-Trp6]LHRH” value in data set [1] is listed as “did not displace the radioligand”.

On to “human growth hormone (hGH): unrelated peptide”, for which the “displacement of [125I][D-Trp6]LHRH” value in [1] is “did not displace the radioligand”.

Turning to somatostatin: unrelated peptide, the “displacement of [125I][D-Trp6]LHRH” value in data set [1] was “did not displace the radioligand”.

For “vasoactive intestinal peptide (VIP): unrelated peptide”, the “displacement of [125I][D-Trp6]LHRH” value in data set [1] is “did not displace the radioligand”.

B1: LHRH receptor type I (protein)
chain: T1 sequence (P30968 1-328)
With B1, the Kd in data set [125I][D-Trp6]LHRH [5] was 3.61 nM; in [125I][D-Trp6]LHRH [6], 5.76 nM; in [125I][D-Trp6]LHRH [7], 5.02 nM; in data set [125I][D-Trp6]LHRH [8], 4.98 nM; in data set [125I][D-Trp6]LHRH [9], 4.38 nM; in data set [125I][D-Trp6]LHRH [10], 6.85 nM. The Kd is 3.83 nM in [125I][D-Trp6]LHRH [11]; 4.92 nM in [125I][D-Trp6]LHRH [12]; 4.94 nM in [125I][D-Trp6]LHRH [13]; 6.26 nM in [125I][D-Trp6]LHRH [14]; 4.31 nM in data set [125I][D-Trp6]LHRH [15]. Moreover, the IC50 with AN-152 was found to be 1.39 nM; in [D-Lys6]LHRH, 0.98 nM.
